Experimental data published in article PMC2515308, “Structural characterization of CA1462, the Candida albicans thiamine pyrophosphokinase” (BMC Structural Biology, 2008).

B1: Saccharomyces cerevisiae thiamine pyrophosphokinase YOR143C (enzyme)
chain: GHHHQLSEECIENPERIKIGTDLINIRNKMNLKELIHPNEDENSTLLILNQKIDIPRPLFYKIWKLHDLKVCADGAANRLYDYLDDDETLRIKYLPNYIIGDLDSLSEKVYKYYRKNKVTIIKQTTQYSTDFTKCVNLISLHFNSPEFRSLISNKDNLQSNHGIELEKGIHTLYNTMTESLVFSKVTPISLLALGGIGGRFDQTVHSITQLYTLSENASYFKLCYMTPTDLIFLIKKNGTLIEYDPQFRNTCIGNCGLLPIGEATLVKETRGLKWDVKNWPTSVVTGRVSSSNRFVGDNCCFIDTKDDIILNVEIFVDKLIDFLQLDGDLEAA

Key:
[1] = target: Candida albicans thiamine pyrophosphokinase CA1462 (Candida albicans); test: SEC; gel filtration of the purified TPK proteins on a Sephacryl S200 HR column
[2] = target: the molecule itself; test: as above

| Molecule | stoichiometry N [1] | stoichiometry N [2] |
| --- | --- | --- |
| Candida albicans thiamine pyrophosphokinase CA1462 (enzyme) | 2 |  |
| B1 |  | 2 |
